Experimental data from article PMC3282739.

Experiments:
[1] = target: Cthe_2751 (Clostridium thermocellum); assay: AUC; sedimentation velocity in an analytical ultracentrifuge; curve generated with Sedfit
[2] = target: Cthe_2751 (Clostridium thermocellum); assay: SEC; Hi Load 10/300 Superdex G75 gel filtration column equilibrated with 20 mM Tris-HCl, 100 mM NaCl, pH 8.0

Cthe_2751 (natural protein) showed a stoichiometry N [1] of 2 and a stoichiometry N [2] of 2.
